# Earlier results, collected in patent US7449180B2, “Macroscopic scaffold containing amphiphilic peptides encapsulating cells” (priority 2001, dated 2008).
# Parameters: key: β denotes beta-sheet; α denote alpha-helix; r.c. denotes random coil
# Conditions: secondary structure of the peptide
row,Substance,Structure
1,n-(ADADADADARARARAR)-c [DAR32-IV],α/β
2,n-AEAEAEAEAKAK-c [EAK12],α/β
3,n-AEAEAEAEAKAKAKAK-c [EAK16-IV],β
4,n-AEAEAHAH-c [EAH8-II],r.c.
5,n-AEAEAHAHAEAEAHAH-c [EAH16-II],β
6,n-AEAEAKAK-c [EAK8-II],r.c.
7,n-AEAEAKAKAEAEAKAK-c [EAK16-II],β
8,n-AEAKAEAK-c [EAKA8-I],r.c.
9,n-AEAKAEAKAEAKAEAK-c [EAKA16-I],β
10,n-FEFEFKFKFEFEFKFK-c [EFK16-II],β
11,n-FEFKFEFK-c [EFK8-II],β
12,n-HEHEHKHK-c [EHK8-I],r.c.
13,n-HEHEHKHKHEHEHKHK-c [EHK16],r.c.
14,n-KADAKADA-c [KADA8-I],r.c.
15,n-KADAKADAKADAKADA-c [KADA16-I],β
16,n-KAKAKAKAEAEAEAEA-c [KAE16-IV],β
17,n-LELELKLK-c [ELK8-II],r.c.
18,n-LELELKLKLELELKLK-c [ELK16-II],β
19,n-RADARADA-c [RADA8-I],r.c.
20,n-RADARADARADARADA-c [RADA16-I],β
21,n-RADARGDARADARGDA-c [RGDA16-I],r.c.
22,n-RAEARAEA-c [RAEA8-I],r.c.
23,n-RAEARAEARAEARAEA-c [RAEA16-I],β
24,n-RARADADA-c [RAD8-II],r.c.
25,n-RARADADARARADADA-c [RAD16-II],β
26,n-RARARARADADADADA-c [RAD16-IV],β
27,n-RFRFRFRFRFRFRFRFRFRF-c [RF20*],β
28,n-VEVEVEVEVEVEVEVEVEVE-c [VE20*],β
